Molecular target: 抗原(bs-0107P)
Test: indirect ELISA, antigen bs-0107P coated at 2 μg/ml (0.2 μg/well), purified antibody in serial dilution, HRP goat anti-mouse IgG, OD450

Chain of 抗原(bs-0107P) (P05067 672-713): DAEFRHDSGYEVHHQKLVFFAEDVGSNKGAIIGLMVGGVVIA

EC50: 0.0237 nM
B1: 抗β-淀粉样蛋白单克隆抗体7D10-1E6 (antibody, V domains shown)
VH: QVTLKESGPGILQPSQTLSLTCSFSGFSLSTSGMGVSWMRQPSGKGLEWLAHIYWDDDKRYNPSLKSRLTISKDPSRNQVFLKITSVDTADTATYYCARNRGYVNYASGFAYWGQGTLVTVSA
VL: DVLMTQTPLSLPVSLGDQASISCRSSQSIVHSNGNTYLEWYLQKPGQSPKLLIYKVSNRFSGVPDRFSGSGSGTDFILKINRVEAEDLGVYYCFQGSHVPLTFGAGTKLELK
